Experimental data as given in publication PMC3514216, “SRC Homology 2 Domain Binding Sites in Insulin, IGF-1 and FGF receptor mediated signaling networks reveal an extensive potential interactome” (Cell Communication and Signaling : CCS, 2012).
Where “and” joins values, the source holds several entries; their conditions need not be identical. Equal entries are not always repeated. Each block holds one substance with its values, some of them ahead of it.

Columns and labels:
[1] = biological target: PDGFRb (Y1021) (Homo sapiens) (UniProt P09619); settings: cited from earlier work
Sequence of PDGFRb (Y1021) (Homo sapiens) (P09619 whole entry, looked up): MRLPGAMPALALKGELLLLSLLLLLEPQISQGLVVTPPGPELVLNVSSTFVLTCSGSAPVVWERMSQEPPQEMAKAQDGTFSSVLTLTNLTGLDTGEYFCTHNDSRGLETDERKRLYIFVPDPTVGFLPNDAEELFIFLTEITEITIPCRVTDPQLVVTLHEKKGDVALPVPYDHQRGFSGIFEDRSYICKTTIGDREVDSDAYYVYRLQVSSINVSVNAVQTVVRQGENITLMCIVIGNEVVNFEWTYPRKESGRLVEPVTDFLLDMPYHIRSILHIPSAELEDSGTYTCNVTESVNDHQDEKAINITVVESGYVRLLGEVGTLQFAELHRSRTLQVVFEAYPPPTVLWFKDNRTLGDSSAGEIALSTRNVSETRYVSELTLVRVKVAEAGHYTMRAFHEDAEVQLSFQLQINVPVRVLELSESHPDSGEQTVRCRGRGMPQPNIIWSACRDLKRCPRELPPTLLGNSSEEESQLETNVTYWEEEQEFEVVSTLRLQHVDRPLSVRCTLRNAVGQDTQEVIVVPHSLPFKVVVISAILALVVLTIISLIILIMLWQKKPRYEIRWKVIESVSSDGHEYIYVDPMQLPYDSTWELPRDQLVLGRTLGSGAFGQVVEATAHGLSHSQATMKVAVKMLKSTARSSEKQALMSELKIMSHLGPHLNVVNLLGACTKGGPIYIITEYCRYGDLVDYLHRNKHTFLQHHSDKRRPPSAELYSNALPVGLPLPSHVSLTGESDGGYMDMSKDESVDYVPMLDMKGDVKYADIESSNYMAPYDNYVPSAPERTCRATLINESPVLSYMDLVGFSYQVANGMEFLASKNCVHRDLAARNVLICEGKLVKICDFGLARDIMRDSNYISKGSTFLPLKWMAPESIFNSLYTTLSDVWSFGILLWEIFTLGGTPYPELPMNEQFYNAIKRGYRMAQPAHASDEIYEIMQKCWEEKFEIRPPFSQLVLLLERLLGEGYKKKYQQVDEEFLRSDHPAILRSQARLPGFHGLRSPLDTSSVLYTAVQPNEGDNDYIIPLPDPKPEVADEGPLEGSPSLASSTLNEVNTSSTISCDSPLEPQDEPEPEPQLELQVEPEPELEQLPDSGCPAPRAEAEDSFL

[2] = biological target: CD150 (Y142) (Homo sapiens) (UniProt P20963); settings: cited from earlier work
Sequence of CD150 (Y142) (Homo sapiens) (P20963 whole entry, looked up): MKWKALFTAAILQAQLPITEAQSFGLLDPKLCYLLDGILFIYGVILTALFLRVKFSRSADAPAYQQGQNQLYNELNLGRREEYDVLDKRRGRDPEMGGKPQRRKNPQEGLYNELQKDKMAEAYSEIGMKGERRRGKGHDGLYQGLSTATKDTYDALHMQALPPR

[3] = biological target: p130Cas (Y664) (Homo sapiens) (UniProt P56945); settings: cited from earlier work
[4] = biological target: B3AT (Y921) (Homo sapiens) (UniProt P02730); settings: cited from earlier work
Sequence of B3AT (Y921) (Homo sapiens) (P02730 whole entry, looked up, the tested form may be a part): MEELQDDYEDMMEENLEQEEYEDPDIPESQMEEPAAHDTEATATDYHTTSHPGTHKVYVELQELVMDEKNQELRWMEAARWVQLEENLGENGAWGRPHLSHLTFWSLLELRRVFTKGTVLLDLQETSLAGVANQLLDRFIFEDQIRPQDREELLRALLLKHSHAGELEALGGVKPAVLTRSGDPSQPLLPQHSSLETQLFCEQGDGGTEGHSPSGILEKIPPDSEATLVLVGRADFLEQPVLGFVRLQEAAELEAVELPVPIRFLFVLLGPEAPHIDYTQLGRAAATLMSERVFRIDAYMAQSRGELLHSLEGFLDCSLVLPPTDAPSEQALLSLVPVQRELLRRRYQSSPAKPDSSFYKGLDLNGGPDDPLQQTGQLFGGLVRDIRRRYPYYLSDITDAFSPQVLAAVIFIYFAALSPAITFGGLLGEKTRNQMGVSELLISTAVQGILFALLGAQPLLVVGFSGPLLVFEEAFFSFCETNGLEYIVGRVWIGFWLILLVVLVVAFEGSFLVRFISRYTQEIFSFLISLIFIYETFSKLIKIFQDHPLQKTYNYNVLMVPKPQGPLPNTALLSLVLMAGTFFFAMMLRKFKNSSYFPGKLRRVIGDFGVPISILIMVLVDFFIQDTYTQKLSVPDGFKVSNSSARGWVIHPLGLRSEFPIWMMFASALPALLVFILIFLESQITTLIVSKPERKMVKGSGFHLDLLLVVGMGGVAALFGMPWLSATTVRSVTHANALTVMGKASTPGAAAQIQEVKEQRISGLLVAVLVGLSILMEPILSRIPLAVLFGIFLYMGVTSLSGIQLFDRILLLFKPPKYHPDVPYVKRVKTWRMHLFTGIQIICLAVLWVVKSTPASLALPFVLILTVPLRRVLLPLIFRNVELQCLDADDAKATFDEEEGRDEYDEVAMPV

[5] = biological target: p62DOK1 (Y398) phosphopeptide KEEGpYELPYNP, Rhodamine B-labelled; test: fluorescence polarisation; Rhodamine B-labelled peptide in solution with SH2 domain; Beacon 2000; as previously described [40]
[6] = biological target: IRS-1 (Y1179) phosphopeptide NGLNpYIDLDLV, Rhodamine B-labelled; test: as above
[7] = biological target: IRS-1 (Y896) phosphopeptide SPGEpYVNIEFG, Rhodamine B-labelled; test: as above
[8] = biological target: IRS-1 (Y1012) (Homo sapiens) (UniProt P35568); settings: cited from earlier work
Sequence of IRS-1 (Y1012) (Homo sapiens) (P35568 whole entry, looked up, the tested form may be a part): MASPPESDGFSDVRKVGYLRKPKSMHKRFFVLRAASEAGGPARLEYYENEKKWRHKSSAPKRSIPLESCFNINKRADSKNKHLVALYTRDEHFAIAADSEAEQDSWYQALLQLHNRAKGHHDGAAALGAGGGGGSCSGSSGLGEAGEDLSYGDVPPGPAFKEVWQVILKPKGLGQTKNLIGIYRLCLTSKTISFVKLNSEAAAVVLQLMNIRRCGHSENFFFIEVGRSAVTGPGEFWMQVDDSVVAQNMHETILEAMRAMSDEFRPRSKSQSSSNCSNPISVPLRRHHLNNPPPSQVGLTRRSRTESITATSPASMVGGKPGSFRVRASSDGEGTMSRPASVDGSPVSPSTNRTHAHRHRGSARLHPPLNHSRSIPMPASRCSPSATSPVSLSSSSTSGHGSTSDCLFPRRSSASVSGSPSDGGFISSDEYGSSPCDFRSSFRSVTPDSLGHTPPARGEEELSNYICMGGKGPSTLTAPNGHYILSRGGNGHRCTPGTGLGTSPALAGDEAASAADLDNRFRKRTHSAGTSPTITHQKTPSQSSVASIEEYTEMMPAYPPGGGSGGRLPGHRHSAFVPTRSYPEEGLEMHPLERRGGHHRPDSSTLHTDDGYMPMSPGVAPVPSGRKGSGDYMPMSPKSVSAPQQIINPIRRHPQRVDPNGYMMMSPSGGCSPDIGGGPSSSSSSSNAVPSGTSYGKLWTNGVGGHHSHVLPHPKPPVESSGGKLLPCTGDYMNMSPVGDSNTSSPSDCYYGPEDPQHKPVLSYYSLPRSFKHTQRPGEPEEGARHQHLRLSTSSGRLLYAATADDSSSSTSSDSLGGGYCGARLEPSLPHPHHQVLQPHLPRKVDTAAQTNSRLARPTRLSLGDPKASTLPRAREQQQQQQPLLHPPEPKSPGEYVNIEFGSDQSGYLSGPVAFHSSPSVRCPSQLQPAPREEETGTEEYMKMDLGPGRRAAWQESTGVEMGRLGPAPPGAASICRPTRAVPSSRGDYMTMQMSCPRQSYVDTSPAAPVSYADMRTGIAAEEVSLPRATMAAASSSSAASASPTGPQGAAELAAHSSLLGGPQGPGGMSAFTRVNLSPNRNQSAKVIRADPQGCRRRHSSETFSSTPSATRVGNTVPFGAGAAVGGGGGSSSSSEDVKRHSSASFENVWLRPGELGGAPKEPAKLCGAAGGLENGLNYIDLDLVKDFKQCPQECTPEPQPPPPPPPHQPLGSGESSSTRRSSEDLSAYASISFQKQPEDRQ

[9] = biological target: FGFR3 (Y760) phosphopeptide STDEpYLDLSAP, Rhodamine B-labelled; test: fluorescence polarisation; Rhodamine B-labelled peptide in solution with SH2 domain; Beacon 2000; as previously described [40]
[10] = biological target: p130Cas (Y362) phosphopeptide AEDVpYDVPPPA, Rhodamine B-labelled; test: as above
[11] = biological target: IRS-1 (Y1179) (Homo sapiens) (UniProt P35568); settings: cited from earlier work
Sequence of IRS-1 (Y1179) (Homo sapiens) (P35568 whole entry, looked up, the tested form may be a part): as above

[12] = biological target: FGFR1 (Y463) phosphopeptide GVSEpYELPEDP, Rhodamine B-labelled; test: fluorescence polarisation; Rhodamine B-labelled peptide in solution with SH2 domain; Beacon 2000; as previously described [40]
[13] = biological target: ShcA (Y426) (Homo sapiens) (UniProt P29353); settings: cited from earlier work
Sequence of ShcA (Y426) (Homo sapiens) (P29353 whole entry, looked up): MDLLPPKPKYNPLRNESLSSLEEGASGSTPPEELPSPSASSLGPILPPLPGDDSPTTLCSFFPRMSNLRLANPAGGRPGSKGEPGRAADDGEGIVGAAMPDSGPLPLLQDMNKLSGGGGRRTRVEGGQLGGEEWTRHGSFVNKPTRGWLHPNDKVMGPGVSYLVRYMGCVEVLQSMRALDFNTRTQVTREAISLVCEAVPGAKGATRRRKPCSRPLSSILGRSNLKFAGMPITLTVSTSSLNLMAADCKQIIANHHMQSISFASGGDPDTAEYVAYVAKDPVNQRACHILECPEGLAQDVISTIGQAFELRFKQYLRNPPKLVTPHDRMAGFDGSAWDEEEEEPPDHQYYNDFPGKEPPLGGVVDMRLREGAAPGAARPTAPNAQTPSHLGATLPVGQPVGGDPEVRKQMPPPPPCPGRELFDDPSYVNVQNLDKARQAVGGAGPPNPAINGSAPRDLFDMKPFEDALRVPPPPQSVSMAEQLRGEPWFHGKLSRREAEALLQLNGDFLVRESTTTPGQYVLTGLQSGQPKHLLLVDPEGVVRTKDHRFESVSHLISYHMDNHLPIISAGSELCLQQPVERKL

[14] = biological target: IRS-1 (Y896) (Homo sapiens) (UniProt P35568); settings: cited from earlier work
Sequence of IRS-1 (Y896) (Homo sapiens) (P35568 whole entry, looked up): as the sequence (P35568 whole entry, looked up, the tested form may be a part) above

[15] = biological target: IRS-1 (Homo sapiens) (UniProt P35568); settings: cited from earlier work
Sequence of IRS-1 (Homo sapiens) (P35568 whole entry): as the sequence (P35568 whole entry, looked up, the tested form may be a part) above

[16] = biological target: p130Cas (Y362) (Homo sapiens) (UniProt P56945); settings: cited from earlier work

Sequence of Grb2 SH2 (P62993 57-155): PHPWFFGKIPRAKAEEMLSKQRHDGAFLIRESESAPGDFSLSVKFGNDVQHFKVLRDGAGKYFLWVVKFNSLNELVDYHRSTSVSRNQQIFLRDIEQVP
Sequence of Crk SH2 (P46108 10-121): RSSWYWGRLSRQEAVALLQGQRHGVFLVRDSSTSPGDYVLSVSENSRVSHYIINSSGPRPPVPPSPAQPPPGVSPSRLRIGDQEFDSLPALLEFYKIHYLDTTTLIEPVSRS
Sequence of Plcγ-C SH2 (C-terminal) (P19174 668-756): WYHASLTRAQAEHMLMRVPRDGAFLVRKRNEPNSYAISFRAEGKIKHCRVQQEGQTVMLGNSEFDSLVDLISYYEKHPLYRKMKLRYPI
Sequence of Shc1 SH2 (P29353 485-582): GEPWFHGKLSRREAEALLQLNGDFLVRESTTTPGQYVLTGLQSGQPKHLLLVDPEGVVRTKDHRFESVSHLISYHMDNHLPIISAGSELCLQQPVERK

Substance: Plcγ-C SH2 (C-terminal) (from UniProt P19174)
Kd [1]: 4100 nM

Substance: Shc1 SH2 (from UniProt P29353)
Kd [2]: 50000 nM

Substance: Src SH2 (from UniProt P12931)
Kd [3]: 35 nM

Substance: Nck1 SH2 (from UniProt P16333)
Kd [4]: 60 nM

Kd [5]: 1850 nM
Kd [6]: 15000 nM
Kd [7]: 2680 nM
Substance: GST-PI3K1_N SH2 domain (domain or fragment)

Substance: Ptpn11_N SH2 (N-terminal) (from UniProt Q06124)
Kd [8]: 110000 nM

Kd [5]: > 50000 nM
Kd [7]: 2080 nM
Kd [9]: 25000 nM
Kd [10]: > 50000 nM
Substance: GST-Ptpn11_N SH2 domain (domain or fragment)

Kd [5]: 13000 nM
Kd [9]: 2140 nM
Substance: GST-PI3K1_C SH2 domain (domain or fragment)

Substance: Ptpn11 tandem SH2 tandem SH2 (from UniProt Q06124)
Kd [11]: 3 nM

Kd [5]: 410 nM
Substance: GST-Rasa1_N SH2 domain (domain or fragment)

Kd [5]: 1390 nM
Kd [12]: > 17000 nM
Kd [9]: > 17000 nM
Substance: GST-Rasa1_C SH2 domain (domain or fragment)

Substance: Grb2 SH2 (from UniProt P62993)
Kd [13]: 23 nM and 53 nM
Kd [14]: 35 nM
Kd [15]: 35 nM

Substance: Crk SH2 (from UniProt P46108)
Kd [16]: 545 nM
